Several values for one entry are separate records, joined by “and”; a condition that tells them apart may be missing. Equal values may be shown once.
B1: Ty1 nanobody (VHH)
VHH: QVQLVETGGGLVQPGGSLRLSCAASGFTFSSVYMNWVRQAPGKGPEWVSRISPNSGNIGYTDSVKGRFTISRDNAKNTLYLQMNNLKPEDTALYYCAIGLNLSSSSVRGQGTQVTVSS
B2: Ty1 nanobody, biotinylated on the C-terminus (VHH)
VHH: B1 VHH
modifications: biotin on the C-terminus (GGGK-biotin joined by Sortase A)
notes: not shown: Sortase recognition site (LPETG), C-terminal, kept

Columns and labels:
[1] = target: T1, SARS-CoV-2 spike receptor-binding domain (RBD) (SARS-CoV-2, UniProt P0DTC2 319-541); assay: ITC; details: both partners purified
T1 construct: also called monomeric RBD

[2] = target: T1, SARS-CoV-2 spike receptor-binding …; assay: BLI; details: both partners purified

| Binder | Kd [1] [nM] | dH [1] [kcal/mol] | Kd [2] |
| --- | --- | --- | --- |
| B1 | 9 | ~-10 | – |
| B2 | – | – | 8 nM and 13 nM |
